Test results: doi:10.1101/2022.09.29.510120

What was measured:
[1] = target: native RPE1 extracted from Chlamydomonas reinhardtii cell cultures (Chlamydomonas reinhardtii (endogenous in strain D66)); experiment: SEC
[2] = target: recombinant ribulose-5-phosphate-3-epimerase isoform 1 from Chlamydomonas reinhardtii (CrRPE1) (Chlamydomonas reinhardtii); experiment: SEC
[3] = target: recombinant ribulose-5-phosphate-3-epimerase isoform 1 from Chlamydomonas reinhardtii (CrRPE1) (Chlamydomonas reinhardtii); experiment: crystal structure
[4] = target: recombinant ribulose-5-phosphate-3-epimerase isoform 1 from Chlamydomonas reinhardtii (CrRPE1) (Chlamydomonas reinhardtii); experiment: SEC-SAXS

Row | Substance | stoichiometry N [1] | stoichiometry N [2] | stoichiometry N [3] | stoichiometry N (subunits per particle) [4]
1 | native RPE1 extracted from Chlamydomonas reinhardtii cell cultures (enzyme) | 6 subunits | – | – | –
2 | recombinant ribulose-5-phosphate-3-epimerase isoform 1 from Chlamydomonas reinhardtii (CrRPE1) (enzyme) | – | 5 subunits | 6 subunits | 6
